Source: patent US20210009657A1 (THEACHON, published 2021)

What was measured:
[1] = target: T1, Aggrecan (R&D systems #1220-PG-025) (UniProt P16112 20-675); test: ELISA, aggrecan coated on plate, detection with anti-FGFR3 antibody
T1 construct: Coated on the ELISA plate at 10 ug/mL
Method: ELISA plate were coated with 10 μg/mL of Aggrecan (R&D systems #1220-PG-025) in a final volume of 50μI per well and incubated overnight at room temperature. Plate were blocked with 300μI of PBS 1% BSA per well during 1 h at room temperature. Different amount of protein (0 to 100 µl ) were incubated for 1 h at room temperature. Specific detection antibody against FGFR3 from an R&D system ELISA kit (#DYC766E) was used to detect recombinant protein fixed to aggrecan as recommended by the manufacturer.

human FGF2 = target: T2, human FGF2 (human, UniProt P09038 143-288); test: fixed FGF2 incubated with increasing decoy, unbound FGF2 by ELISA
T2 construct: also called hFGF2; Fibroblast Growth Factor 2
T2 sequence (P09038 143-288 limits assumed): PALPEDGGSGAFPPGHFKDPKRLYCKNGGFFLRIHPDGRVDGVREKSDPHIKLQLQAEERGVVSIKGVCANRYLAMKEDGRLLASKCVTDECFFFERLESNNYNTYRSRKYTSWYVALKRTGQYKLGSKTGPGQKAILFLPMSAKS
Method: Fixed amounts of human FGF2, or human FGF9 (R&D Systems) were incubated for 2 h at 37° C. with increasing doses of each recombinant protein (0 to 250 ng/ml) in PBS 1% BSA. Specific commercial ELISA kits (R&D Systems; Clinisciences) were used to quantify remaining unbound FGFs. 1000 pg/ml or 1200 pg/ml were used for FGF2 and FGF9 respectively based on the sensitivity of the corresponding ELISA kits.

T1 sequence (P16112 20-675 limits assumed): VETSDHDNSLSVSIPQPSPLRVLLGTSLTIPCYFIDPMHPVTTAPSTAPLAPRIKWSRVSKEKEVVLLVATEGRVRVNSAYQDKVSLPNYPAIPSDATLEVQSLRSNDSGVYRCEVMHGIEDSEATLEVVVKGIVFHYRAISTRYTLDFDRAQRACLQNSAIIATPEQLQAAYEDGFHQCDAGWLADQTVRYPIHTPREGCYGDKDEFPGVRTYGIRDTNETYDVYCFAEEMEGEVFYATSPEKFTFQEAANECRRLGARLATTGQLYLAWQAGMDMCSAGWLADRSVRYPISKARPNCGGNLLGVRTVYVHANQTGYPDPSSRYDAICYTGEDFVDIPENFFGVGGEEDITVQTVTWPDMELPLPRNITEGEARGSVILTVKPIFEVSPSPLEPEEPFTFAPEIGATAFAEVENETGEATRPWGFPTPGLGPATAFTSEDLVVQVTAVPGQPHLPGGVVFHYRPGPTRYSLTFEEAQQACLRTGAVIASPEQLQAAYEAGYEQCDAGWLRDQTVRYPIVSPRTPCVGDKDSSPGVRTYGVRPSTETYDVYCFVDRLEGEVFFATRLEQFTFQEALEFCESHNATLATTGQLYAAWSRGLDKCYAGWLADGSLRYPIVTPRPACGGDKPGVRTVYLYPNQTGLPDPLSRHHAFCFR

B1: FLAG-sFGFR3_Del4 (receptor)
chain: DYKDDDDKMGAPACALALCVAVAIVAGASSESLGTEQRVVGRAAEVPGPEPGQQEQLVFGSGDAVELSCPPPGGGPMGPTVWVKDGTGLVPSERVLVGPQRLQVLNASHEDSGAYSCRQRLTQRVLCHFSVRVTDAPSSGDDEDGEDEAEDTGVDTGAPYWTRPERMDKKLLAVPAANTVRFRCPAAGNPTPSISWLKNGREFRGEHRIGGIKLRHQQWSLVMESVVPSDRGNYTCVVENKFGSIRQTYTLDVLERSPHRPILQAGLPANQTAVLGSDVEFHCKVYSDAQPHIQWLKHVEVNGSKVGPDGTPYVTVLKVSLESNASMSSNT
notes: Obtained by site directed mutagenesis of sFGFR3-pFLAG-CMV3 and made in HEK 293 cells; also called Del4 variant
binding result [1]: no binding

B2: FLAG-sFGFR3_Del4-LK1-LK2 (other)
chain: DYKDDDDKLVDQIPAMGAPACALALCVAVAIVAGASSESLGTEQRVVGRAAEVPGPEPGQQEQLVFGSGDAVELSCPPPGGGPMGPTVWVKDGTGLVPSERVLVGPQRLQVLNASHEDSGAYSCRQRLTQRVLCHFSVRVTDAPSSGDDEDGEDEAEDTGVDTGAPYWTRPERMDKKLLAVPAANTVRFRCPAAGNPTPSISWLKNGREFRGEHRIGGIKLRHQQWSLVMESVVPSDRGNYTCVVENKFGSIRQTYTLDVLERSPHRPILQAGLPANQTAVLGSDVEFHCKVYSDAQPHIQWLKHVEVNGSKVGPDGTPYVTVLKVSLESNASMSSNTSGSGSGSGSGSGSGSVVFPYFPRLGRYNLNFHEAQQACLDQDAVIASFDQLYDAWRGGLDWCNAGWLSDGSVQYPITKPREPCGGQNTVPGVRNYGFWDKDKSRYDVFCFTSNFNGRFYYLIHPTKLTYDEAVQACLNDGAQIAKVGQIFAAWKILGYDRCDAGWLADGSVRYPISRPRRRCSPTEAAVRFVGFPDKKHKLYGVYCFRAYN
notes: Fusion of a soluble FGFR3 fragment with the LK1 and LK2 link domains of human HPLN1; Made in HEK 293 cells; also called FP; fusion protein
binding result (human FGF2): binds
